Measurements from article PMC7059798, “Phosphoglucomutase Is Not the Target for Galactose Toxicity in Plants” (Frontiers in Plant Science, 2020).

Experiments:
purified protein [1] = substrate: O=P(O)(O)OC[C@H]1O[C@H](OP(=O)(O)O)[C@H](O)[C@@H](O)[C@@H]1O; test: purified protein; type: biochemical, Arabidopsis thaliana; conditions: 50 mM TEAB pH 7.0, 2 mM MgCl2, Glc-1P as substrate, 25°C, catalytic intermediate, Figure 3 legend prints 4.3, varied: cofactor
purified protein [2] = substrate: O=P(O)(O)O[C@H]1O[C@H](CO)[C@@H](O)[C@H](O)[C@H]1O; test: purified protein; type: biochemical, Arabidopsis thaliana; conditions: 50 mM TEAB pH 7.0, 2 mM MgCl2, 10 µM Glc-1,6bP, 25°C

B1: PGM3 (Arabidopsis thaliana) (protein)
chain: MVFKVSTVSTSPIDGQKPGTSGLRKKVKVFKQPNYLENFVQATFNALTAEKVKGATLVVSGDGRYYSKDAVQIIIKMAAANGVRRVWVGKNTLLSTPAVSAVIRERSGADGSKATGAFILTASHNPGGPTEDFGIKYNMENGGPAPESITDKIYENTKTIKEYPIAQDLPNVDISAVGVTSFEGPEGKFDVEVFDPADDYVKLMKSIFDFEAIRKLLSSPKFTFCYDALHGVAGAYAHRIFVEELGAQESALLNCTPKEDFGGGHPDPNLTYAKELVARMGLGKSDTGGEPPEFGAAADGDADRNMILGKRFFVTPSDSVAIIAANAIGAIPYFSSGLKGVARSMPTSAALDVVAKSLNLKFFEVPTGWKFFGNLMDAGMCSVCGEESFGTGSDHIREKDGIWAVLAWMSILAHKNKGNIDGNAKLVSVEDIVRQHWATYGRHYYTRYDYENVDAGKAKELMEHLVKLQSSIPEVNKIVKGIRSDVASVASADEFEYKDPVDGSISKHQGIRYLFEDGSRLVFRLSGTGSEGATIRLYIEQYEKDASKTGRESQEALSPLVDLALKLSKMEEFTGRSAPTVIT
notes: forward primer encodes (tag)HHHHHG-MVFKVSTVS
Km (purified protein [1]): 4.38 µM | Km (purified protein [2]): 90 µM
